The subject of one test is NTera-2 cells. Kind of test: Neurite growth test using NTera-2 cells (test method 2). The format is cell-based, human. The conditions noted are these: FIG. 7B. The text has this: Test Method 2: Illustration of the Effect of RGM Peptides in the Neurite Growth Test, Using NTera-2 Cells
The human pluripotent cancer cell line NTera2 (DSMZ ACC527) is established as a cell culture model. Neurites grow from cell aggregates and form a corona of neurites around the particular aggregate.
NTera-2 cells are human embryonic teratocarcinoma cells. A carcinoma is a cancerous tumor, whereas a teratoma or teratocarcinoma is a mixed tumor of the germ cells composed of various differentiated and undifferentiated tissues, and therefore, the same as for the SH-SY5Y culture, comprises a heterogeneous population. The tumor is usually present in an encapsulated form in the various types, such as hair, skin, teeth, muscle, and nerve tissue. The tumors typically originate in the ovaries, testes, abdominal cavity, or brain. The cell line was cloned from the Tera-2 line, obtained from a metastatic teratocarcinoma in a person.
NTera-2 cells are epithelial, adherently growing cells which form a monolayer. Due to the large number of granular particles which they contain, NTera-2 cells may be easily differentiated from the other cells. The cells were cultivated by 1:5 splitting twice a week. The cells of this mixed culture may be differentiated using retinoic acid in neuronal cells.
Culture Medium Fur Growth […]
In order to differentiate the cells it was necessary to introduce antibiotic into the culture medium of the cell line due to the fact that the cells remained in the same culture flask for three weeks. Previously, the undifferentiated culture had been detrypsinated and the cell count determined using a Neubauer counting chamber. […] 25 μL retinoic acid (10 μM) was readded to the medium under dim light conditions. […]
The culture was stored in an incubator at 37° C. with 5% CO2 gassing, and the medium was changed at the beginning and at the end of the week. […] After three weeks the cells were differentiated and were ready for use in experiments. […]
Different plate formats were used for the tests. For the isolation of protein, 6-well plates were necessary for recovering a sufficient quantity. […]

Test [1] relates to BMP signalling (rhBMP-2-induced luciferase activity). Kind of test: BRE-Luc assay on BMP signalling in BMP-responsive C3H10-B12 cells. In kind it is cell-based. On the procedure:
Evaluation of the Agonistic or Antagonistic Effect of h RMG A on BMP Signalling using BRE-Luc Assay
a) Materials: • Three compounds were provided at 200 μg/ml.
fragment #788 (IgK/hRGM A 47-422/Xa cleavage site/Fc) • recombinant h BMP-2 (from CHO cells; #355-BM) and monoclonal anti-human BMP2/4 antibodies (#MAB3552) were obtained from R&D Systems Europe, Lille, France • Bright-Glo Luciferase assay kit were purchased from Promega
All experiments were performed in triplicate, and were repeated at two separate times.

The test system of the next test is SH-SY5Y cells. Put plainly: Neurite growth assay using SH-SY5Y cells (test method 1). In kind it is cell-based, human. The conditions noted are these: FIG. 7A. The text has this:
Test Method 1: Illustration of the Effect of RGM Peptides in the Neurite Growth Assay, Using SH-SY5Y Cells
SH-SY5Y cells are human neuroblastoma cells. Blastomas are embryonic tumors which originate during tissue and organ formation. The origin of the blastoma cells is frequently unknown, since in early embryonic states the differentiation of many cells is still premature; i.e., the blastoma cells are a heterogeneous cell population. The cells of a neuroblastoma, referred to as neuroblasts, originate from the neural crest (structure of the embryonic state) from the autonomous nerve tissue, and are practically arrested in an immature stage. The cells in the present case originated from a clonal subculture of the neuroepitheliomal cell line SK-N-SH which were isolated in 1970 in a bone marrow biopsy of a child with metastases of the neuroblastomas.
Culture Medium for SH-SY5Y Cells (ECACC No. 94030304)
The medium was sterile-filtered using a Nunc 500-mL filter, and was stored in a refrigerator at 4° C. until used. Before use, the medium was heated to 37° C. in a water bath.
SH-SY5Y cells are epithelial, neuron-like cells which slowly adherently grow in a monolayer and never attain a confluence of 100% (maximum 80%). The cell culture was split 1:3 two times per week. Isolation of the cells requires incubation with trypsin for 1-3 minutes in an incubator.
Since this is a population of still immature precursor cells, it is possible to differentiate the cells using retinoic acid, so that a certain percentage of the cells acquire neurite-like extensions. For this purpose the culture was incubated in the medium with 10 μM retinoic acid directly in the culture dish or flask, depending on the test, for 3 days.
Microtiter plates (96-well) (containing collagen I-coated plates) were additionally coated with the hRGM A fragments. After washing two times with PBS the cells were seeded. […] In the quantitative analysis the SH-SY5Y cells grown on hRGM A fragments were compared to SH-SY5Y grown on collagen I alone. The neurite length of the cells was automatically measured and used for the analysis. […]

Entries after “also recorded” stand apart in the source; their conditions may differ.

This is an account of results in patent US20100322948A1, “Bone morphogenetic protein (BMP)-binding domains of proteins of the repulsive guidance molecule (RGM) protein family and functional fragments thereof, and use of same” (ABBOTT GMBH & CO. KG, priority 2007, published 2010).

B1: fragment #786: Fc fusion protein of human RGM A amino acids 47-168 (protein)
chain: PCKILKCNSEFWSATSGSHAPASDDTPEFCAALRSYALCTRRTARTCRGDLAYHSAVHGIEDLMSQHNCSKDGPTSQPRLRTLPPAGDSQERSDSPEICHYEKSFHKHSATPNYTHCGLFGD
modifications: left off: small tags and cut ends; a dimerising Fc or GST
B1: the “inhibition of neurite growth” value in the test with NTera-2 cells and in the test with SH-SY5Y cells was “inhibit the neurite growth” in each case. For the same molecule, the “inhibitory activity in neurite growth test compared with 316-386-Fc” value with NTera-2 cells (listed as 47-168-Fc) and with SH-SY5Y cells (listed as 47-168-Fc) was “much stronger effect; also recorded: significantly higher activity” each time. Moreover, the “effect on BMP-2-induced luciferase activity” value in test [1] (combined with rhBMP-2 at 50 ng/ml, 24 h, listed as #786) is “dose-dependent inhibition; also recorded: inhibited the rhBMP-2-induced activity in a dose dependent fashion”. In addition, in test [1] (compounds at 10 μg/ml, rhBMP-2 at 50 ng/ml), the “inhibition of the rhBMP-2-induced activity” value came out at 88%. Also, the “equivalent dose for 50% of inhibition (ED50)” value in test [1] (rhBMP-2 at 50 ng/ml) was determined as 0.1 µg/mL.
